Sequences and labels used below:
B1: Transcription elongation factor A N-terminal and central domain-containing protein, residues 30 to 77; numbered along this chain, Q8N8B7 (parent)
chain: LTELETIYVTKEHLQETDVVRAVYRVLKNCPSVALKKKAKCLLSKWKA

± gives the uncertainty stated by the source.

In the data set the parent is B1. Description: abundance fitness (aPCA) (normalised: wild type 0, dead -1); higher = more abundant; growth selection in yeast, the domain comes from the species named. To be noted: Homo sapiens.
Turning to LTELETIYVTKEHLQETDVVRYVYRVLKNCPSVALKKKAKCLLSKWKA [A22Y], the abundance fitness is -0.074 ± 0.11.

In the case of LTELETIYVTKEHLQETDVVRWVYRVLKNCPSVALKKKAKCLLSKWKA [A22W], the abundance fitness is 0.256 ± 0.076.

For LTELETIYVTKEHLQETDVVRAVYSVLKNCPSVALKKKAKCLLSKWKA [R25S], the abundance fitness was -0.257 ± 0.086.

As for LTELETIYVTKEHLQETDVVRAVYQVLKNCPSVALKKKAKCLLSKWKA [R25Q], the abundance fitness was -0.038 ± 0.27.

For the variant LTELETIYVTKEHLQETDVVRAVYKVLKNCPSVALKKKAKCLLSKWKA [R25K], the abundance fitness was -0.364 ± 0.11.

With LTELETIYVTKEHLQETDVVRAVYCVLKNCPSVALKKKAKCLLSKWKA [R25C], the abundance fitness is -0.92 ± 0.25.

As to LTELETIYVTKEHLQETDVVRAVYVVLKNCPSVALKKKAKCLLSKWKA [R25V], the abundance fitness was -0.849 ± 0.13.

Turning to LTELETIYVTKEHLQETDVVRAVYNVLKNCPSVALKKKAKCLLSKWKA [R25N], the abundance fitness is -0.091 ± 0.13.

For the variant LTELETIYVTKEHLQETDVVRAVYAVLKNCPSVALKKKAKCLLSKWKA [R25A], the abundance fitness is -0.326 ± 0.087.

LTELETIYVTKEHLQETDVVRAVYFVLKNCPSVALKKKAKCLLSKWKA [R25F]: the abundance fitness was -0.811 ± 0.23.

Consider LTELETIYVTKEHLQETDVVRAVYGVLKNCPSVALKKKAKCLLSKWKA [R25G], for which the abundance fitness was -0.136 ± 0.08.

For the variant LTELETIYVTKEHLQETDVVRAVYLVLKNCPSVALKKKAKCLLSKWKA [R25L], the abundance fitness is -0.71 ± 0.096.

With LTELETIYVTKEHLQETDVVRAVYWVLKNCPSVALKKKAKCLLSKWKA [R25W], the abundance fitness was -0.837 ± 0.19.

As to LTELETIYVTKEHLQETDVVRAVYEVLKNCPSVALKKKAKCLLSKWKA [R25E], the abundance fitness is -0.743 ± 0.15.

On to LTELETIYVTKEHLQETDVVRAVYYVLKNCPSVALKKKAKCLLSKWKA [R25Y], for which the abundance fitness was -0.805 ± 0.44.

Consider LTELETIYVTKEHLQETDVVRAVYDVLKNCPSVALKKKAKCLLSKWKA [R25D], for which the abundance fitness is -0.443 ± 0.15.

Regarding LTELETIYVTKEHLQETDVVRAVYTVLKNCPSVALKKKAKCLLSKWKA [R25T], the abundance fitness was -0.528 ± 0.13.

As to LTELETIYVTKEHLQETDVVRAVYPVLKNCPSVALKKKAKCLLSKWKA [R25P], the abundance fitness was -0.812 ± 0.18.

On to LTELETIYVTKEHLQETDVVRAVGRVLKNCPSVALKKKAKCLLSKWKA [Y24G], for which the abundance fitness was -0.345 ± 0.068.

Regarding LTELETIYVTKEHLQETDVVRAVPRVLKNCPSVALKKKAKCLLSKWKA [Y24P], the abundance fitness was -0.72 ± 0.17.

As to LTELETIYVTKEHLQETDVVRAVQRVLKNCPSVALKKKAKCLLSKWKA [Y24Q], the abundance fitness was -0.223 ± 0.11.

Regarding LTELETIYVTKEHLQETDVVRAVRRVLKNCPSVALKKKAKCLLSKWKA [Y24R], the abundance fitness stood at 0.277 ± 0.066.

For LTELETIYVTKEHLQETDVVRAVHRVLKNCPSVALKKKAKCLLSKWKA [Y24H], the abundance fitness is -0.468 ± 0.16.

Consider LTELETIYVTKEHLQETDVVRAVMRVLKNCPSVALKKKAKCLLSKWKA [Y24M], for which the abundance fitness stood at 0.315 ± 0.075.

For LTELETIYVTKEHLQETDVVRAVARVLKNCPSVALKKKAKCLLSKWKA [Y24A], the abundance fitness came out at 0.019 ± 0.078.

As to LTELETIYVTKEHLQETDVVRAVDRVLKNCPSVALKKKAKCLLSKWKA [Y24D], the abundance fitness is -0.217 ± 0.099.

Turning to LTELETIYVTKEHLQETDVVRAVCRVLKNCPSVALKKKAKCLLSKWKA [Y24C], the abundance fitness is -0.003 ± 0.1.

Regarding LTELETIYVTKEHLQETDVVRAVIRVLKNCPSVALKKKAKCLLSKWKA [Y24I], the abundance fitness stood at 0.105 ± 0.11.

Turning to LTELETIYVTKEHLQETDVVRAVVRVLKNCPSVALKKKAKCLLSKWKA [Y24V], the abundance fitness stood at 0.11 ± 0.07.

Consider LTELETIYVTKEHLQETDVVRAVFRVLKNCPSVALKKKAKCLLSKWKA [Y24F], for which the abundance fitness is 0.172 ± 0.13.

For LTELETIYVTKEHLQETDVVRAVWRVLKNCPSVALKKKAKCLLSKWKA [Y24W], the abundance fitness is 0.406 ± 0.087.

LTELETIYVTKEHLQETDVVRAVNRVLKNCPSVALKKKAKCLLSKWKA [Y24N]: the abundance fitness was -0.362 ± 0.15.

As for LTELETIYVTKEHLQETDVVRAVLRVLKNCPSVALKKKAKCLLSKWKA [Y24L], the abundance fitness was determined as 0.205 ± 0.076.

Consider LTELETIYVTKEHLQETDVVRAVKRVLKNCPSVALKKKAKCLLSKWKA [Y24K], for which the abundance fitness stood at 0.219 ± 0.095.

Consider LTELETIYVTKEHLQETDVVRAVYRELKNCPSVALKKKAKCLLSKWKA [V26E], for which the abundance fitness was -0.836 ± 0.18.

As to LTELETIYVTKEHLQETDVVRAVYRLLKNCPSVALKKKAKCLLSKWKA [V26L], the abundance fitness is -0.172 ± 0.088.

Turning to LTELETIYVTKEHLQETDVVRAVYRQLKNCPSVALKKKAKCLLSKWKA [V26Q], the abundance fitness is -0.183 ± 0.27.

Turning to LTELETIYVTKEHLQETDVVRAVYRFLKNCPSVALKKKAKCLLSKWKA [V26F], the abundance fitness is 0.126 ± 0.11.

As to LTELETIYVTKEHLQETDVVRAVYRWLKNCPSVALKKKAKCLLSKWKA [V26W], the abundance fitness amounted to 0.447 ± 0.11.

In the case of LTELETIYVTKEHLQETDVVRAVYRCLKNCPSVALKKKAKCLLSKWKA [V26C], the abundance fitness came to 0.15 ± 0.12.

As for LTELETIYVTKEHLQETDVVRAVYRTLKNCPSVALKKKAKCLLSKWKA [V26T], the abundance fitness turned out to be 0.279 ± 0.12.

As for LTELETIYVTKEHLQETDVVRAVYRYLKNCPSVALKKKAKCLLSKWKA [V26Y], the abundance fitness was found to be 0.491 ± 0.17.

Take LTELETIYVTKEHLQETDVVRAVYRGLKNCPSVALKKKAKCLLSKWKA [V26G]: the abundance fitness was -0.095 ± 0.078.

On to LTELETIYVTKEHLQETDVVRAVYRKLKNCPSVALKKKAKCLLSKWKA [V26K], for which the abundance fitness was -0.149 ± 0.22.

In the case of LTELETIYVTKEHLQETDVVRAVYRILKNCPSVALKKKAKCLLSKWKA [V26I], the abundance fitness was -0.105 ± 0.12.

In the case of LTELETIYVTKEHLQETDVVRAVYRRLKNCPSVALKKKAKCLLSKWKA [V26R], the abundance fitness amounted to 0.211 ± 0.079.

On to LTELETIYVTKEHLQETDVVRAVYRNLKNCPSVALKKKAKCLLSKWKA [V26N], for which the abundance fitness was -0.152 ± 0.12.

Take LTELETIYVTKEHLQETDVVRAVYRPLKNCPSVALKKKAKCLLSKWKA [V26P]: the abundance fitness is -0.131 ± 0.14.

As for LTELETIYVTKEHLQETDVVRAVYRMLKNCPSVALKKKAKCLLSKWKA [V26M], the abundance fitness was determined as 0.206 ± 0.11.

In the case of LTELETIYVTKEHLQETDVVRAVYRSLKNCPSVALKKKAKCLLSKWKA [V26S], the abundance fitness was -0.206 ± 0.089.

As for LTELETIYVTKEHLQETDVVRAVYRDLKNCPSVALKKKAKCLLSKWKA [V26D], the abundance fitness is -0.727 ± 0.21.

LTELETIYVTKEHLQETDVVRAVYRALKNCPSVALKKKAKCLLSKWKA [V26A]: the abundance fitness turned out to be 0.154 ± 0.076.

As for LTELETIYVTKEHLQETDVVRAVYRVGKNCPSVALKKKAKCLLSKWKA [L27G], the abundance fitness is -0.88 ± 0.094.

Take LTELETIYVTKEHLQETDVVRAVYRVVKNCPSVALKKKAKCLLSKWKA [L27V]: the abundance fitness was -0.445 ± 0.091.

These data come from the Human Domainome abundance scans (Beltran et al. 2025).
